1 molecule from patent US20240100187A1 (AC IMMUNE, published 2024) can be followed below.

Test [1] concerns the target T1, TDP-43 C-terminal peptide called TP-62.
T1 construct: also called TP-62 peptide
Description: BLI (Octet), TP-62 peptide loaded at 500 nM on streptavidin biosensors, antibody from 100 nM in 2-fold serial dilutions, 900 s association, 600 s dissociation [cont.].

Test [2] deals with T2, human full length TDP-43 protein (human, UniProt Q13148 1-414).
T2 construct: mature; Coated at 1 ug/ml on ELISA plates; also called hTDP-43 full length (FL) protein; human FL TDP-43
Nature of the test: indirect ELISA on coated human full length TDP-43, anti-human secondary antibody, absorbance A450nm; apical supernatants of hCMEC/D3 in the OrganoPlate BBB model 3 days after transduction, and purified control antibodies. (In general: In an ELISA, binding on a coated surface is turned into a signal by an enzyme label.)
Description: Supernatants from both top lane (apical) and bottom lane (basolateral) were collected 3 days post-transduction and antibody concentrations in the apical and basolateral compartments were determined by binding to human full-length (FL) TDP-43 using an indirect ELISA. In brief, ELISA plate coating with 1 μg/ml human FL TDP-43 was performed overnight in carbonate buffer at 4° C. Plates were washed with 0.05% Tween-20/PBS and then blocked with 1% bovine serum albumin (BSA) in 0.05% Tween-20/PBS for 1 hour at 37° C. Collected antibody-containing supernatants were then added to the plate and incubated for 2 hours at 37° C. after which the plates were washed. […] After the final wash, plates were incubated with pNPP solution and read at 405 nm after 1h using a plate reader (BioTek). […] Supernatants from both apical and basolateral sides were collected 3 days post-transduction and antibody concentrations in the apical and basolateral compartments were determined by binding to human FL TDP-43 using an indirect ELISA as described previously.

Test [3] has as its target T1, TDP-43 C-terminal peptide called TP-62. Nature of the test: BLI (Octet), TP-62 on streptavidin biosensors; range told for the IgG constructs, transfected or vectorized.
Test [4] shares this target. Nature of the test: BLI (Octet), TP-62 on streptavidin biosensors, 2-fold dilutions from 100 nM, 30 C.

Where “and” joins values, the source holds several entries; their conditions need not be identical. Identical values can stand only once.

T2 sequence (Q13148 whole entry): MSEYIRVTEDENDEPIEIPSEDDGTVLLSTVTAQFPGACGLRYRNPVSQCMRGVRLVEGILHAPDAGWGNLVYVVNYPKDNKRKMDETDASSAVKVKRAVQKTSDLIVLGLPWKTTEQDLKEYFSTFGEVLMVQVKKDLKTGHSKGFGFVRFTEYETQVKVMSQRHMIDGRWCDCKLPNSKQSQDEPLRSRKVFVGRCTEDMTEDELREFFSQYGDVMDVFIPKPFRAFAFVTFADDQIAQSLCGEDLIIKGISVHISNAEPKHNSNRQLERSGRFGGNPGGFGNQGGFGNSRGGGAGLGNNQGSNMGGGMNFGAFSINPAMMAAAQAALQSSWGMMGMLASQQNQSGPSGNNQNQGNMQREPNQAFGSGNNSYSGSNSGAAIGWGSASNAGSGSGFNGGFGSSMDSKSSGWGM

B1: MAB1 IgG (anti-TDP-43 antibody, chimeric human IgG1) (antibody, V domains shown)
VH: EVQLQQSGPELVKPGASVKISCKTSGFTFTEYSMHWVKQSHGKSLEWIGGINPNNGGTSYNQKFKGKATLTVDKSSSTAYMELRSLTSEDSAVYYCARESWGQGTTLTVSS
VL: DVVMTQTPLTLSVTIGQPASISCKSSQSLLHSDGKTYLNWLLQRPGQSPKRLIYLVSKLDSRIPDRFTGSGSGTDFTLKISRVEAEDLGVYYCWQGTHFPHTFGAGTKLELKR
notes: Chimeric human IgG1 anti-TDP-43; The IRES and 2 promoter constructs give the same correctly matured protein, whether transfected (CHO) or AAV-vectorized, so they are treated as one molecule; also called MAB1 hIgG1; IgG standard
What is called Kd is a measure of binding affinity in units of concentration. A high value points to a looser complex. The koff is the rate constant with which the complex falls apart. Low readings indicate a long-lived complex, high ones a short-lived complex. Broadly, the kon is the second-order rate constant of association. Low readings indicate slower complex formation, high ones faster complex formation. Consider B1, for which, in test [1], the Kd was roughly 4.66 nM, the koff is 0.000435 s⁻¹ and the kon amounted to 170000 M⁻¹ s⁻¹. Besides, the binding result in test [2] was “binds”. Also, in test [3], the Kd lay within 4 to 6 nM. The Kd in test [4] is 5.7 nM and 4.7 nM and 4.3 nM.
